The target in assay [1] is T1, complex formed between sCD4 and biotinylated HIV-1LAI gp120 (HIV-1 LAI (BRU); human, UniProt P03377 33-516; P01730 26-396).
T1 construct: also called b-LAI:sCD4
The experiment in a line: flow cytometry on human CCR5-bearing murine L1.2 cells (data not shown). For orientation: A flow cytometer gives signals particle by particle.

The target of assay [2] is T2, recombinant soluble human CD4 (human, UniProt P01730 26-396).
T2 construct: also called sCD4; soluble CD4
The description is as above.

B1: human CCR5 expressed on the cell surface (receptor)
chain: not shown
notes: whole, on cells; also called C-C CKR-5; CKR-5
As for B1, the binding result in assay [1] and in assay [2] was “no binding” each time.

For the origin of these results see patent US7858298 (PROGENICS PHARMACEUTICALS, dated 2010).
